The results in this text go back to patent US12661385B2, “Modulation of mTORCI activity and autophagy via CIB2-RHEB interaction” (University of Maryland, Baltimore, priority 2018, dated 2026).

In assay [1] the test system is RPE-J cells. Description: LC3-II induction / LC3 flux immunoblots in transfected RPE-J cells. Format: cell-based, rat. The following applies: RPE-J cells overexpressing CIB2 vs GFP, in the presence of bafilomycin A1, 24 hrs. Here is the method: FIG. 13. Loss of CIB2, specifically in the RPE, leads to LC3 flux deficits, while CIB2 overexpression, in vitro, restores LC3 flux._a-d, RPE whole mounts treated with DMSO or 50 μM bafilomycin A1 (Baf-A1) overnight show reduced levels of LC3-II, quantified in panels b and d, in Cib2 deficient mice as compared to WT controls, indicating autophagy deficits. Ratio for WT or RPE-Cre+; Cib2^+/+ was set to 1. e. Representative immunoblots for LC3-II induction in transiently transfected (GFP or CIB2-IRES-GFP) RPE-J cells treated with DMSO, 50 μM bafilomycin-A1 (Baf-A1), or 100 nM rapamycin (Rapa) for 24 hrs. f. Quantification of LC3 flux (ratio of LC3-II/actin in Baf-A1 to DMSO treated samples) or LC3B-II/actin ratio up on rapamycin treatment for immunoblots shown in (e). […]
Complementary to the findings of Cib2 mutant mice, over-expressing CIB2 in RPE-J cells increased LAMP-1 and ATG5-ATG12 complex proteins levels (FIG. 12c-d). […] To test this idea, we assessed LC3-II flux. LC3-I is a cytosolic protein which when lipidated with a phosphatidylethanolamine adduct (LC3-II form) localizes to the growing auto/phagosome membrane, and thus can be used as a reliable readout for the dynamic autophagic process (Valapala et al., Autophagy 10, 480-496 (2014); Kim et al., Noncanonical Autophagy Promotes the Visual Cycle. Cell 154, 365-376 (2013); Klionsky et al., Autophagy 12, 1-222 (2016)). […]
Background: Immunoblotting shows a protein as a band on a membrane.

For assay [2], the target named is Rheb (Homo sapiens, UniProt Q15382). Description: NanoSPD (nanoTRAP) interaction assay in COS-7 cells, Rheb. Format: binding. On the set-up: host or cells: COS-7. The following applies: filopodia tip co-accumulation. The text has this: FIG. 14. […] Arrowheads indicate filopodia tip accumulation of hCIB2-eGFP, * indicates no accumulation of indicted constructs in the red channel. c. Representative confocal images (top panel) showing CIB2 (green) interaction with Rheb (red) and Raptor (red) using NanoTRAP assay. […] Arrowheads indicate filopodia tip accumulation of indicated constructs, * indicates no accumulation of indicted construct in the red or far-red channel. Scale bar: 10 μm. d. Quantification for nanoTRAP assay for images shown above. *** p<0.001 by one-way ANOVA. e, Co-IP experiments show interaction between Raptor and CIB2.
Rheb, sequence (Q15382 whole entry): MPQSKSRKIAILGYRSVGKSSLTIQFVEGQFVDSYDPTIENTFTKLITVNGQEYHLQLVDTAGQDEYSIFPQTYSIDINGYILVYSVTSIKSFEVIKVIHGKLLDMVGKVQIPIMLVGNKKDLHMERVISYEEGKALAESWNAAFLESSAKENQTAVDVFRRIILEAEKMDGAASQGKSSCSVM
To reveal the molecular mechanism of CIB2-mediated mTORC1 modulation, we focused on the TSC-Rheb-mTORC1 axis. We performed an interaction screen of specific proteins including TSC1, TSC2, mTORC1-specific subunit Raptor, mTOR kinase, and Rheb. We used a recently-published quantitative interaction assay known as nanoscale pulldown 2.0 (NanoSPD), in which eGFP-nanobody tag fused to the myosin-HMM domain (nanoTRAP) preferentially migrates to the filopodia (Bird et al., Molecular Biology of the Cell 28, 463-475 (2017)). CIB2-eGFP (bait) migrated efficiently to filopodia in COS-7 cells only in the presence of the nanoTRAP. […] Many downstream and upstream targets of mTORC1 regulate its activity via binding to the mTORC1-specific subunit Raptor. […]

B1: CIB2: calcium and integrin binding protein 2, over-expressed in cells from plasmid constructs; SEQ ID NO:1 (human), SEQ ID NO:2 (mouse) (protein)
chain: MGNKQTIFTEEQLDNYQDCTFFNKKDILKLHARFYELAPNLVPMDYRKSPIVHVPMSLIIQMPELRENPFKERIVEAFSEDGEGNLTFNDFVDMFSVLCESAPRELKANYAFKIYDFNTDNFICKEDLEMTLARLTKSELEEDEVVLVCDKVIEEADLDGDGKLGFADFEDMIAKAPDFLSTFHIRI
modifications: left off: large carriers
As to B1, the “Relative LC3 flux (ratio of LC3-II/actin in Baf-A1 to DMSO treated samples)” value in assay [1] is given as “markedly increased”. For the same molecule, the “Interaction with Rheb (NanoSPD)” value in assay [2] is “interacts with Rheb”.
